This note sets out measurements from article PMC10638403.

In this experiment the target is full-length E. coli ClpX (E. coli) (UniProt P0A6H1).

As for FITC-casein, the rate of ClpP degradation of FITC-casein (50 µM, 30 °C) supported by full-length ∆NPS ClpX against wild-type ClpX (against ~10-fold for ∆NPS ClpX^∆N over ClpX^∆N) came to 2 fold.
